Reference: patent US11015206B2, “Compositions and methods comprising sequences having hydroxyphenylpyruvate dioxygenase (HPPD) activity” (PIONEER HI-BRED INTERNATIONAL, INC., priority 2014, dated 2021)
Numbering of substitutions follows the chain as printed. Numbers in names are those of the source. Each block holds one molecule with its values, some of them ahead of it.

What was measured:
Format in all cases: biochemical, Z. mays
[1] = test system: 4-hydroxyphenylpyruvate dioxygenase (HPPD); test: ON rate ratio: HPPD reaction rate with vs without inhibitor in the 70 to 90 second interval; conditions: Table 5; tembotrione
In short: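 Time courses of HPPD reactions, 60 or 120 nM enzyme with 100 μM HPP substrate, run with and without 4 μM inhibitor (e.g. mesotrione, tembotrione). Value is the rate with inhibitor over rate without, taken over 70–90 s; higher ratio reflects slower kON.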

[2] = test system: 4-hydroxyphenylpyruvate dioxygenase (HPPD); test: HPPD activity coupled assay with HGD; substrate saturation kinetic parameters (kcat, KM); conditions: Table 6; for kcat: single substitutions in SEQ ID NO:2
Experimental: Wild type and shuffled variant genes were cloned into pVER7062, a modified version of pET24a(+)(Novagen), which places six histidine residues at the N-terminus of the expressed protein. Vectors were electroporated into E. coli host strain BL21(DE3). Cells were grown at 30 C in rich medium such as 2×YT containing the selection antibiotic, kanamycin. At a density of about 0.6 OD600, IPTG was added to 0.2 mM, the temperature was reduced to 16 C and growth continued for another 24 hrs. Cells were harvested by centrifugation and stored at −80 C. Cell pellets were lysed in BPER (Pierce) protein extraction reagent containing 0.2 mg/ml lysozyme, 1 mM dithiothreitol, protease inhibitor cocktail (Sigma, bacterial cocktail) and endonuclease. Insoluble cellular debris was removed by centrifugation. HPPD protein was purified from the soluble protein solution by affinity chromatography on the nickel form of nitrilotriacetic acid (Ni-NTA) resin (Qiagen). Protein concentrations were determined by the Bradford method, as supplied by Bio-Rad.
HPPD catalyzes the conversion of 4-hydroxyphenylpyruvate (HPP) to homogentisate (FIG. 17). […] However, the product of the ensuing reaction in tyrosine metabolism, maleylacetoacetate, absorbs strongly at 320 nm. Furthermore, the enzyme catalyzing that reaction is also a dioxygenase having similar mechanism and buffer requirements as HPPD, making homogentisate dioxygenase (HGD) an ideal partner in a coupled assay, as shown.
The HDG gene from Pseudomonas aeruginosa (Amaya (2004) Arch Biochem Biophys 421, 135-142) was cloned into pVER7062 and electroporated into E. coli strain BL21(DE3). The enzyme was produced by methods similar to those described for HPPD. The purified enzyme has a KM for homogentisate of 23 μM and a kcat of 100/sec, properties highly suited for instantly converting the homogentisate produced by HPPD to maleylacetoacetate.
HPPD activity was measured by placing an aliquot (e.g., 6 μl) of the substrate HPP at 50-fold the desired final concentration into the wells of a low UV-absorbing assay plate. Reactions were started by adding a mixture (e.g., 294 μl) containing 25 mM Hepes, pH 7, 2 mM ascorbate, 10 μM FeSO4, 1 to 100 μM HPP, 50 nM HGD and 5 to 240 nM HPPD. Absorbance at 320 nm was monitored continuously in a plate-reading spectrophotometer (Spectramax, Molecular Devices).
The catalytic performance of wild-type HPPD and variants generated by shuffling was assessed by determining the substrate saturation kinetic parameters. The Michaelis-Menten kinetics protocol of the Spectramax software was customized for HPP concentrations ranging from 3.33 μM to 100 μM. Reaction rates were measured as described above for each concentration of HPP. The software returns values of KM and Vmax using the Lineweaver-Burke transformation of the Michaelis-Menten equation.

[3] = test system: 4-hydroxyphenylpyruvate dioxygenase (HPPD); test: Insensitivity parameter (ON × OFF) and trait fitness (ON × OFF × kcat/KM or × kcat); conditions: for ON × OFF × kcat, Value / ON × OFF × kcat, Fold vs wt / ON × OFF, fold vs wt / ON × OFF (parameters with tembotrione): Table 5, tembotrione; for ON × OFF × kcat, Fold vs wt / ON × OFF, fold vs wt: fold vs maize wild type HPPD; for ON × OFF (parameters with tembotrione): insensitivity parameter
In short: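 Calculated, not measured directly: ON rate ratio × OFF rate ratio gives an insensitivity parameter serving as a KD surrogate.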

[4] = test system: 4-hydroxyphenylpyruvate dioxygenase (HPPD); test: OFF rate ratio: release of inhibitor from pre-formed enzyme-inhibitor complex; conditions: Table 5; tembotrione
In short: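 HPPD (7.2 μM) pre-incubated 1 h at RT with inhibitor (8 μM), then diluted into 25 mM Hepes pH 7, 2 mM ascorbate, 10 μM FeSO4, 100 μM HPP, 50 nM HGD; A320 followed 12 min. Ratio = steady-state rate with inhibitor over initial rate of inhibitor-free enzyme.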

[5] = test system: 4-hydroxyphenylpyruvate dioxygenase (HPPD); test: Estimate of kcat from initial rate at saturating hydroxyphenylpyruvate without inhibitor (ON rate ratio assay); conditions: Table 5; single substitutions in Round 7 variant 9070 (SEQ ID NO:2); estimate from initial rate at saturating hydroxyphenylpyruvate without inhibitor
In short: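 Reactions used 60 or 120 nM HPPD and saturating 100 μM hydroxyphenylpyruvate without inhibitor. kcat was estimated from the initial rate at the known enzyme concentration.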

[6] = DKN (diketonitrile form of isoxaflutole)
[7] = DKN (isoxaflutole diketonitrile)

ON ratio (parameters with tembotrione) [1]: 0.75
Insensitivity parameter, ON × OFF [3, 6]: 0.41
Insensitivity parameter, ON × OFF ([3]; Mesotrione, Table 6): 0.56
Insensitivity parameter, ON × OFF ([3]; Sulcotrione): 0.70
ON × OFF, fold vs wt [3]: 39.5
ON × OFF (parameters with tembotrione) [3]: 0.20
Insensitivity parameter, ON × OFF ([3]; Tembotrione): 0.28
Insensitivity parameter, ON × OFF ([3]; Topramezon): 0.38
OFF ratio (parameters with tembotrione) [4]: 0.27
B1: 385I: single substitution L385I in SEQ ID NO:2 (protein)
chain: MGPTPTATAAGAAVAAASAAEQAAFRLVGHRNFVRFNPRSDRFQTLAFHHVELWCADAASAAGRFSFALGVPLAARSDLSTGNSAHASLLLRSGSLSLLFTAPYAHGADAATAALPSFSAAAARRFAADHGLAVRAVALRVADAEDAFRASVAAGARPAFGPVDLGRGFRLAEVELYGDVVLRYVSYPDGAAGEPFLPGFEGVASPGAADYGLSRFDHIVGNVPELAPAAAYMAGFTGFHEFAEFTTEDVGTTESGLNSMALANNSENVLLPLNEPVHGTKRRSQIQTFLDHHGGPGVQHIALASDDVLRTLREMRARSAMGGFEFLPPPLSDYYDGVRRCAGDVLTEAQINECQELGVMVDRDDQGVLLQIFTKPVGDRPTFFIEIIQRIGCMEKDEKGQEYQKGGCGGFGKGNFGQLFKSIEDYEKSLEAKQAAAAATAQGS
modifications: Zea mays variant form created by artificial means.
Km [2]: 2290 nM
kcat [2]: 46.1 min⁻¹
ON × OFF × kcat/km fold vs Round 7, variant 9070 [3, 7]: 1.2
ON × OFF × kcat/km fold vs Round 7, variant 9070 ([3]; Sulco (sulcotrione)): 1.1
ON × OFF × kcat, Value [3]: 5.55
ON × OFF × kcat, Fold vs wt [3]: 5.18
ON × OFF × kcat/km fold vs Round 7, variant 9070 ([3]; Topra (topramezone)): 1.2
ON × OFF × kcat/km fold vs Round 7, variant 9070 ([3]; meso (mesotrione)): 1.1
ON × OFF × kcat/km fold vs Round 7, variant 9070 ([3]; tembo (tembotrione)): 1.3
kcat [5]: 27.5 min⁻¹

ON ratio (parameters with tembotrione) [1]: 0.75
Insensitivity parameter, ON × OFF [3, 6]: 0.25
Insensitivity parameter, ON × OFF ([3]; Mesotrione, Table 6): 0.48
Insensitivity parameter, ON × OFF ([3]; Sulcotrione): 0.55
ON × OFF, fold vs wt [3]: 31.2
ON × OFF (parameters with tembotrione) [3]: 0.16
Insensitivity parameter, ON × OFF ([3]; Tembotrione): 0.18
Insensitivity parameter, ON × OFF ([3]; Topramezon): 0.23
OFF ratio (parameters with tembotrione) [4]: 0.21
B2: 356K: single substitution E356K in SEQ ID NO:2 (protein)
chain: B1 chain with E356K, I385L
modifications: Zea mays variant form created by artificial means.
Km [2]: 2600 nM
kcat [2]: 65.8 min⁻¹
ON × OFF × kcat/km fold vs Round 7, variant 9070 [3, 7]: 1.1
ON × OFF × kcat/km fold vs Round 7, variant 9070 ([3]; Sulco (sulcotrione)): 1.1
ON × OFF × kcat, Value [3]: 6.18
ON × OFF × kcat, Fold vs wt [3]: 5.78
ON × OFF × kcat/km fold vs Round 7, variant 9070 ([3]; Topra (topramezone)): 0.9
ON × OFF × kcat/km fold vs Round 7, variant 9070 ([3]; meso (mesotrione)): 1.2
ON × OFF × kcat/km fold vs Round 7, variant 9070 ([3]; tembo (tembotrione)): 1.2
kcat [5]: 38.8 min⁻¹

ON ratio (parameters with tembotrione) [1]: 0.77
Insensitivity parameter, ON × OFF [3, 6]: 0.38
Insensitivity parameter, ON × OFF ([3]; Mesotrione, Table 6): 0.54
Insensitivity parameter, ON × OFF ([3]; Sulcotrione): 0.63
ON × OFF, fold vs wt [3]: 40.6
ON × OFF (parameters with tembotrione) [3]: 0.21
Insensitivity parameter, ON × OFF ([3]; Tembotrione): 0.29
Insensitivity parameter, ON × OFF ([3]; Topramezon): 0.37
OFF ratio (parameters with tembotrione) [4]: 0.27
B3: 158K: single substitution P158K in SEQ ID NO:2 (protein)
chain: B1 chain with P158K, I385L
modifications: Zea mays variant form created by artificial means.
Km [2]: 2490 nM
kcat [2]: 47.1 min⁻¹
ON × OFF × kcat/km fold vs Round 7, variant 9070 [3, 7]: 1.0
ON × OFF × kcat/km fold vs Round 7, variant 9070 ([3]; Sulco (sulcotrione)): 0.9
ON × OFF × kcat, Value [3]: 10.44
ON × OFF × kcat, Fold vs wt [3]: 9.76
ON × OFF × kcat/km fold vs Round 7, variant 9070 ([3]; Topra (topramezone)): 1.1
ON × OFF × kcat/km fold vs Round 7, variant 9070 ([3]; meso (mesotrione)): 1.0
ON × OFF × kcat/km fold vs Round 7, variant 9070 ([3]; tembo (tembotrione)): 1.3
kcat [5]: 50.4 min⁻¹
